Reference: US20250304690A1 (HANGZHOU VIROMAB BIOTECH, published 2025)
Residue numbers refer to the chain shown, from its start.

B1: BK-D-08 (bispecific antibody, human IgG1, kappa)
heavy: QVQLVQSGAEVKKPGASVKVSCKASGYTFTNYYMKWVKQAPGQRLEWMGDLNPNNGDTFYNQKFKGRVTITVDKSASTAYMELSSLRSEDTAVYYCARTGRYEENAMDYWGQGTLVTVSSASTKGPSVFPLAPSSKSTSGGTAALGCLVKDYFPEPVTVSWNSGALTSGVHTFPAVLQSSGLYSLSSVVTVPSSSLGTQTYICNVNHKPSNTKVDKRVEPKSCDKTHTCPPCPAPEFEGGPSVFLFPPKPKDTLMISRTPEVTCVVVDVSHEDPEVKFNWYVDGVEVHNAKTKPREEQYNSTYRVVSVLTVLHQDWLNGKEYKCKVSNKALPASIEKTISKAKGQPREPQVYTLPPSREEMTKNQVSLTCLVKGFYPSDIAVEWESNGQPENNYKTTPPVLDSDGSFFLYSKLTVDKSRWQQGNVFSCSVMHEALHNHYTQKSLSLSPGKGGGGSGGGGSGGGGSQAVVTQEPSLTVSPGGTVTLTCRSSTGAVTTSNYANWVQQKPGQAPRGLIGGTNKRAPWTPARFSGSLLGGKAALTLSGAQPEDEAEYYCALWYSNLWVFGGGTKLTVLGGGGSGGGGSGGGGSEVQLVESGGGLVQPGGSLRLSCAASGFTFNTYAMNWVRQAPGKGLEWVARIRSKYNNYATYYADSVKDRFTISRDDSKNILYLQMNSLKTEDTAMYYCVRHGNFGNSYVSWFAYWGQGTLVTVSA
light: DIVLTQSPASLAVSPGQRATITCRASESVDSYGKSFMHWYQQKPGQPPKLLIYRASNLESGVPARFSGSGSRTDFTLTINPVEANDTANYYCQQNNEDPWTFGQGTKLEIKRTVAAPSVFIFPPSDEQLKSGTASVVCLLNNFYPREAKVQWKVDNALQSGNSQESVTEQDSKDSTYSLSSTLTLSKADYEKHKVYACEVTHQGLSSPVTKSFNRGEC
B2: BK-D-05 (bispecific antibody, human IgG1, kappa)
heavy: B1 heavy with L542I, S543T, P547T, M684V
light: B1 light
B3: BK-D-06 (bispecific antibody, human IgG1, kappa)
heavy: B1 heavy with Q505E, T525V, G536D, P547T, M684V
light: B1 light
B4: BK-D-12 (bispecific antibody, human IgG1, kappa)
heavy: B1 heavy
light: B1 light with I2L, L4M, Q42L
B5: BK-D-03 (bispecific antibody, human IgG1, kappa)
heavy: B1 heavy with I669S, M684V
light: B1 light with I2L, L4M, Q42L
B6: BK-D-10 (bispecific antibody, human IgG1, kappa)
heavy: B1 heavy with R44S, M48I, R67K, V68A, I70L, S84N, I669S, M684V
light: B1 light with I2L, L4M, Q42L
B7: BK-D-09 (bispecific antibody, human IgG1, kappa)
heavy: B1 heavy with P547T, M684V
light: B1 light
B8: BK-D-02 (bispecific antibody, human IgG1, kappa)
heavy: B1 heavy with R44S, M48I, R67K, V68A, I70L, S84N
light: B1 light with I2L, L4M, Q42L
B9: BK-D-04 (bispecific antibody, human IgG1, kappa)
heavy: B1 heavy with T525V, G536D, P547T, I669S, M684V
light: B1 light
B10: BK-D-11 (bispecific antibody, human IgG1, kappa)
heavy: B1 heavy with I669S, M684V
light: B1 light
B11: BK-D-01 (bispecific antibody, human IgG1, kappa)
heavy: B1 heavy with R44S, M48I, R67K, V68A, I70L, S84N, I669S, M684V
light: B1 light
B12: BK-D-07 (bispecific antibody, human IgG1, kappa)
heavy: B1 heavy with R44S, M48I, R67K, V68A, I70L, S84N
light: B1 light
B13: BK-A-101 (bispecific antibody, human IgG1, kappa)
heavy: not shown
light: QAVVTQESALTTSPGETVTLTCRSSTGAVTTSNYANWVQEKPDHLFTGLIGGTNKRAPGVPARFSGSLIGDKAALTITGAQTEDEAIYFCALWYSNLWVFGGGTKLTVLRTVAAPSVFIFPPSDEQLKSGTASVVCLLNNFYPREAKVQWKVDNALQSGNSQESVTEQDSKDSTYSLSSTLTLSKADYEKHKVYACEVTHQGLSSPVTKSFNRGEC
notes: also called bispecific antibody; the bispecific antibody
B14: CD3 Ab15 (antibody, human IgG1, kappa, V domains shown)
VH: EVQLVESGGGLVQPGGSLRLSCAASGFTFNTYAMNWVRQAPGKGLEWVARIRSKYNNYATYYADSVKDRFTISRDDSKNILYLQMNSLKTEDTAMYYCVRHGNFGNSYVSWFAYWGQGTLVTVSA
VL: QAVVTQEPSLTVSPGGTVTLTCRSSTGAVTTSNYANWVQEKPGQAPRGLIGGTNKRAPWVPARFSGSLLGDKAALTLSGAQTEDEAEYYCALWYSNLWVFGGGTKLTVLR
notes: also called humanized anti-CD3 monoclonal antibody
B15: BK-B-110 (bispecific antibody)
chain: ELVMTQSPASLAVSLGQRATISCRASESVDSYGKSFMHWYQLKPGQPPKLLIYRASNLESGVPARFSGSGSRTDFTLTIDPVEADDAATYYCQQNNEDPWTFGGGTKLEIKGSTSGSGKPGSGEGSTKGEVQLEQSGPELVKPGASVKMSCKASGYTFTNYYMKWVKQSHGKSLEWIGDLNPNNGDTFYNQKFKGKATLTVDKSSNTAYMQLNSLTSEDSAVYYCARTGRYEENAMDYWGQGTSVTVSSPCPAPEFEGGPSVFLFPPKPKDTLMISRTPEVTCVVVDVSHEDPEVKFNWYVDGVEVHNAKTKPREEQYNSTYRVVSVLTVLHQDWLNGKEYKCKVSNKALPASIEKTISKAKGQPREPQVYTLPPSREEMTKNQVSLTCLVKGFYPSDIAVEWESNGQPENNYKTTPPVLDSDGSFFLYSKLTVDKSRWQQGNVFSCSVMHEALHNHYTQKSLSLSPGKGGGGSGGGGSGGGGSQAVVTQESALTTSPGETVTLTCRSSTGAVTTSNYANWVQEKPDHLFTGLIGGTNKRAPGVPARFSGSLIGDKAALTITGAQTEDEAIYFCALWYSNLWVFGGGTKLTVLGGGGSGGGGSGGGGSEVKLLESGGGLVQPKGSLKLSCAASGFTFNTYAMNWVRQAPGKGLEWVARIRSKYNNYATYYADSVKDRFTISRDDSQSILYLQMNNLKTEDTAMYYCVRHGNFGNSYVSWFAYWGQGTLVTVSA
B16: BK-B-110-hu2 (bispecific antibody)
chain: ELVMTQSPASLAVSLGQRATISCRASESVDSYGKSFMHWYQLKPGQPPKLLIYRASNLESGVPARFSGSGSRTDFTLTIDPVEADDAATYYCQQNNEDPWTFGGGTKLEIKGSTSGSGKPGSGEGSTKGEVQLEQSGPELVKPGASVKMSCKASGYTFTNYYMKWVKQSHGKSLEWIGDLNPNNGDTFYNQKFKGKATLTVDKSSNTAYMQLNSLTSEDSAVYYCARTGRYEENAMDYWGQGTSVTVSSPCPAPEFEGGPSVFLFPPKPKDTLMISRTPEVTCVVVDVSHEDPEVKFNWYVDGVEVHNAKTKPREEQYNSTYRVVSVLTVLHQDWLNGKEYKCKVSNKALPASIEKTISKAKGQPREPQVYTLPPSREEMTKNQVSLTCLVKGFYPSDIAVEWESNGQPENNYKTTPPVLDSDGSFFLYSKLTVDKSRWQQGNVFSCSVMHEALHNHYTQKSLSLSPGKGGGGSGGGGSGGGGSQAVVTQEPSLTVSPGGTVTLTCRSSTGAVTTSNYANWVQQKPGQAPRTLIGGTNKRAPWVPARFSGSLLGDKAALTLSGAQPEDEAEYYCALWYSNLWVFGGGTKLTVLGGGGSGGGGSGGGGSEVQLVESGGGLVQPGGSLRLSCAASGFTFNTYAMNWVRQAPGKGLEWVARIRSKYNNYATYYADSVKDRFTISRDDSKNILYLQMNSLKTEDTAVYYCVRHGNFGNSYVSWFAYWGQGTLVTVSA

Biological target: T1, CD3 on Jurkat cells and on human T cells (human, UniProt P07766 23-207)
T1 construct: whole, on cells; also called CD3 end; CD3 antigen
Assay: flow cytometry on Jurkat cells
Protocol: Jurkat cells were plated, washed with a FACS buffer, and centrifuged at 1200 rpm for 3-5 min. Then diluted antibodies with different concentrations were added at 100 L/well. The cells were incubated at 4° C. for 0.5 h, centrifuged at 1200 rpm for 3-5 min, and washed with a FACS buffer. Then a diluted goat anti-human IgG (FITC, Abcam/ab97224) antibody was added. The cells were incubated at 4° C. for 0.5 h, centrifuged at 1200 rpm for 3-5 min, washed with a FACS buffer, and resuspended in 50 μL of a FACs buffer, and assays were performed using a flow cytometer.

T1 sequence (P07766 23-207): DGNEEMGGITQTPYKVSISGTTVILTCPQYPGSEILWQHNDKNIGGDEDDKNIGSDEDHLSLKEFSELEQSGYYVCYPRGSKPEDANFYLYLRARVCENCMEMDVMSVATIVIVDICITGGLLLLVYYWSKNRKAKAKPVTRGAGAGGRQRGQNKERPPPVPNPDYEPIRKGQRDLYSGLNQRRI

Row | Binder | EC50
1 | B1 | 136 nM
2 | B2 | 71.4 nM
3 | B3 | 32.6 nM
4 | B4 | 80.6 nM
5 | B5 | 111 nM
6 | B6 | 143 nM
7 | B7 | 97.8 nM
8 | B8 | 80.3 nM
9 | B9 | 18.2 nM
10 | B10 | 169 nM
11 | B11 | 62.5 nM
12 | B12 | 49.4 nM
13 | B13 | 0.8 nM

Biological target: TT3 labeling polypeptide on cells
Assay: flow cytometry on HCT116-TT3 cells

Sequence of TT3 labeling polypeptide on cells (P01732 other isoform, or with tags, fused parts or gaps limits assumed): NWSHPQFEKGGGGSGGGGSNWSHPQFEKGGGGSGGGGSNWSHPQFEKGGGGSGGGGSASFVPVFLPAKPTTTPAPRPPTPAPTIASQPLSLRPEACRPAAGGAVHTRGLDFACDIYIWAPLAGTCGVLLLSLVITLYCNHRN

Row | Binder | EC50
14 | B1 | 0.368 nM
15 | B2 | 1.04 nM
16 | B3 | 0.908 nM
17 | B4 | 0.523 nM
18 | B5 | 0.464 nM
19 | B6 | 0.248 nM
20 | B8 | 0.099 nM
21 | B9 | 0.47 nM
22 | B10 | 0.336 nM
23 | B11 | 0.07 nM
24 | B12 | 0.127 nM
25 | B13 | 15.8 nM

Biological target: CD3 on 293T-CD3 cells
Assay: flow cytometry on 293T-CD3 cells
Protocol: (§1) Then diluted antibodies with different concentrations were added. The cells were incubated at 4° C. for 0.5 h, centrifuged at 1200 rpm for 3-5 min, and washed with a FACS buffer. Then a goat anti-human IgG secondary antibody (manufacturer: Abcam, ab98596) was added at 100 L/well. The cells were incubated at 4° C. for 0.5 h, centrifuged at 1200 rpm for 3-5 min, washed with a FACs buffer, and resuspended in 50 μL of a FACs buffer, and assays were performed using a flow cytometer.

Sequence of CD3 on 293T-CD3 cells (chain, as listed by the source): as the sequence (P07766 23-207) above

Row | Binder | EC50
26 | B14 | 3.48 nM

Biological target: hCD3 (human CD3 antigen) (human, UniProt P07766 23-126)
Assay: ELISA, plate-coated hCD3
Protocol: The activity of the prepared humanized antibodies was assessed by ELISA as follows: hCD3 (human CD3 antigen) was diluted to 0.5 g/mL using a coating solution and then added to a 96-well plate at 100 μL/well, and the plate was incubated overnight at 4° C. The plate was washed with PBST. Then 200 µL of a blocking solution was added to each well, and blocking was performed at a temperature of 37° C. for 2 h. The plate was washed with PBST. Then diluted antibodies (the initial concentration was 40 nM, and serial dilution was performed in a 1:6 ratio) were added at 100 L/well, and the plate was incubated at a temperature of 37° C. for 2 h. The plate was washed with PBST. Then an HRP-labeled goat anti-human IgG was added at 100 L/well, and the plate was incubated at 37° C. for 1 h. The plate was washed with PBST, and TMB was added at 100 L/well. Color development was performed at 37° C. for 10-20 min, and 50 µL of 2 M H₂SO₄ was added to each well to stop the reaction. Readings were taken at 450 nm.

Sequence of hCD3 (human CD3 antigen) (P07766 23-126): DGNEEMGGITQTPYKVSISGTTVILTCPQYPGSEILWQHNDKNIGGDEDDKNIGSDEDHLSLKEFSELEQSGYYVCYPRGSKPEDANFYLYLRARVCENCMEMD

Row | Binder | EC50
27 | B14 | 0.0099 nM

Biological target: TT3 labeling polypeptide on cells
Assay: flow cytometry (as for Table 1)

Row | Binder | binding result
28 | B15 | binds
29 | B16 | binds

Biological target: T1, CD3 on Jurkat cells and on human T cells
Assay: flow cytometry on Jurkat cells
Remark: another data set of the same source
Protocol: as §1

Row | Binder | EC50
30 | B14 | 1.11 nM
